Measured values: patent US11453702B2, “Bicyclic peptide ligands specific for Nectin-4” (priority 2018, dated 2022)
*1 amine or outer side, *2 acyl side, *3 side chain or, on linkers, in order; H or OH if unused. Where a SMILES comes first, the peptide text is derived from it. Bridges are numbered along the chain shown (N, C = ends). Roman numbers before positions name the chains, in order. [ ]: non-standard residue; d: D form. The star is where a group is joined. ξ: configuration not given here. TATA = O=C(CC[*:1])N1CN(C(=O)CC[*:2])CN(C(=O)CC[*:3])C1; Dolaproine = CO[C@@H]([C@@H]1CCCN1)[C@@H](C)C(=O)O; X1 = CC[C@H](C)C(C(CC(=O)[*:2])OC)N(C)[*:1]; Dil = CC[C@H](C)[C@H](NC)[C@@H](CC(=O)O)OC; 1Nal = N[C@@H](Cc1cccc2ccccc12)C(=O)O; X3 = O=C(CCCC(=O)[*:2])NCCC(=O)[*:1]; PABC = O=C(OCc1ccc(N[*:1])cc1)[*:2]; X4 = C[C@@H](N*)[C@@H](O)c1ccccc1; Hyp = O=C(O)[C@@H]1C[C@@H](O)CN1; hArg = N=C(N)NCCCC[C@H](N)C(=O)O; Cit = NC(=O)NCCC[C@H](N)C(=O)O; X2 = CC(N*)[C@@H](O)c1ccccc1; NMeV = CN[C@H](C(=O)O)C(C)C; ξNMeV = CNC(C(=O)O)C(C)C; ξV = CC(C)C(N)C(=O)O; Sar = CNCC(=O)O

Tests used:
[1] = tested on: NCI-H526 xenograft; conditions: 5 mg/kg biw (so in the source)
Protocol: (§1) The major endpoint was to see if the tumor growth could be delayed or mice could be cured. Tumor volume was measured three times weekly in two dimensions using a caliper, and the volume was expressed in mm^3 using the formula: V=0.5 a×b^2 where a and b are the long and short diameters of the tumor, respectively. The tumor size was then used for calculations of T/C value. The T/C value (in percent) is an indication of antitumor effectiveness; T and C are the mean volumes of the treated and control groups, respectively, on a given day.
(§2) TGI was calculated for each group using the formula: TGI (%)=[1−(Ti−T0)/(Vi−V0)]×100; Ti is the average tumor volume of a treatment group on a given day, T0 is the average tumor volume of the treatment group on the day of treatment start, Vi is the average tumor volume of the vehicle control group on the same day with Ti, and V0 is the average tumor volume of the vehicle group on the day of treatment start.
(§3) A one-way ANOVA was performed to compare tumor volume among groups, and when a significant F-statistics (a ratio of treatment variance to the error variance) was obtained, comparisons between groups were carried out with Games-Howell test. All data were analyzed using GraphPad Prism 5.0. P<0.05 was considered to be statistically significant. […]

[2] = tested on: A549 xenograft; experiment: In vivo efficacy in A549 xenograft in Balb/c nude mice (Example 9.1); conditions: mouse
Protocol: as §1, §2, §3

[3] = tested on: HT-1376 xenograft; conditions: 5 mg/kg qw, during the treatment schedule
Protocol: All data were analyzed using GraphPad Prism 5.0. P<0.05 was considered to be statistically significant.
The objective of the research is to evaluate the in vivo anti-tumor efficacy of test articles in treatment of HT-1376 xenograft in CB17-SCID mice.
The HT-1376 tumor cells were maintained in vitro as a monolayer culture in EMEM medium supplemented with 10% heat inactivated fetal bovine serum at 37° C. in an atmosphere of 5% CO2 in air. The tumor cells were routinely subcultured twice weekly by trypsin-EDTA treatment. The cells growing in an exponential growth phase were harvested and counted for tumor inoculation.
Each mouse was inoculated subcutaneously at the right flank with HT-1376 tumor cells (5×10^6) in 0.2 ml of PBS with matrigel (1:1) for tumor development. Animals were randomized when the average tumor volume reached 153-164 mm^3. The test article administration and the animal numbers in each group were shown in the experimental design table.
The HT-1376 tumor cells will be maintained in EMEM medium supplemented with 10% heat inactivated fetal bovine serum at 37° C. in an atmosphere of 5% CO2 in air. The tumor cells will be routinely subcultured twice weekly. The cells growing in an exponential growth phase will be harvested and counted for tumor inoculation. […]

[4] = tested on: NCI-H292 xenograft; experiment: In vivo efficacy in NCI-H292 xenograft (NSCLC model) in BALB/c nude mice (Examples 1, 5, 9.5); conditions: Ex 1; all treatment animals during the dosing schedule
Description: The animals will be randomized and treatment will be started when the average tumor volume reaches approximately 158-406 mm^3.
The objective of the research is to evaluate the in vivo anti-tumor efficacy of test articles in treatment of NCI-H292 xenograft in Balb/c nude mice.

[5] = tested on: CTG-1771, CTG-1171, CTG-1106 and CTG-0896 PDX models; conditions: all models
Description: To evaluate the antitumor activity of Bicycle Agent in Low Passage Champions TumorGraft Models of Human Breast, Esophageal, and Bladder Cancer in Immunocompromised mice.
Pre-study Animals: When sufficient stock animals reach 1.0-1.5 cm^3, tumors will be harvested for re-implantation into pre-study animals. Pre-study animals will be implanted unilaterally on the left flank with tumor fragments harvested from stock animals. Each animal is implanted from a specific passage lot and documented.
Study Animals: Pre-study tumor volumes are recorded for each experiment beginning seven to ten days after implantation. When tumors reach an average tumor volume of 150-300 mm^3, animals will be matched by tumor volume into treatment or control groups to be used for dosing and dosing initiated on Day 0.

[6] = BCY8245 (BT8009) injected at 3 mg/kg; MDA-MB-468 xenograft animals
Protocol: At various timepoints, animals were euthanized and plasma and tumour taken and snap frozen. Samples were analysed for MMAE.

[7] = tested on: MDA-MB-468 cell line; experiment: HCS assay, Nectin-4 BDC binding study (Example 11); assay type: cell-based
Protocol: HCS assay was used in Nectin-4 BDC binding study. Cells were incubated with test agent and then washed. Detection was by a fluorescent antibody to MMAE.

For `CC[C@H](C)C(C(CC(=O)N1CCC[C@H]1[C@H](OC)[C@@H](C)C(=O)NC(C)[C@@H](O)c1ccccc1)OC)N(C)C(=O)[C@@H](NC(=O)C(C(C)C)N(C)C(=O)OCc1ccc(NC(=O)[C@H](CCCNC(N)=O)NC(=O)C(NC(=O)CCCC(=O)NCCC(=O)N(C)CC(=O)N(C)CC(=O)N(C)CC(=O)N(C)CC(=O)N(C)CC(=O)N(C)CC(=O)N(C)CC(=O)N(C)CC(=O)N(C)CC(=O)N(C)CC(=O)N[C@H]2CSCCC(=O)N3CN4CN(C3)C(=O)CCSC[C@H](NC(=O)[C@@H](CC(=O)O)NC(=O)[C@H](Cc3cccc5ccccc35)NC(=O)[C@@H]3CCCN3C2=O)C(=O)N[C@@H](CCSC)C(=O)N[C@@H](CCCCNC(=N)N)C(=O)N[C@@H](CC(=O)O)C(=O)N[C@@H](Cc2c[nH]c3ccccc23)C(=O)N[C@@H](CO)C(=O)N[C@@H]([C@@H](C)O)C(=O)N2CCC[C@H]2C(=O)N2C[C@H](O)C[C@H]2C(=O)N[C@@H](Cc2c[nH]c3ccccc23)C(=O)N[C@H](C(N)=O)CSCCC4=O)C(C)C)cc1)C(C)C` (stereo partly drawn) [BCY8245, MMAE-PABC-Cit-Val-Glutaryl-BCY8234] (I: [Sar][Sar][Sar][Sar][Sar][Sar][Sar][Sar][Sar][Sar]CP[1Nal][dD]CM[hArg]DWSTP[Hyp]WC-NH2 / II: [ξV][Cit][PABC][ξNMeV]V[X1][Dolaproine]-X2; linker I:11-I:15-I:25 via TATA; linker I:N-II:N via X3), the animal bodyweight loss [1] was “over 10%”, the “bodyweight (in words)” value [2] was “maintained the bodyweight well” and the animal bodyweight loss [3] was “over 10%”. For the same molecule, the “bodyweight (in words)” value [4] was “continued bodyweight loss”, the “tolerability compared with Docetaxel (in words)” value [5] was “better tolerated than Docetaxel” and the “retention of MMAE in tumour versus plasma (in words)” value [6] was “MMAE was retained in the tumour longer than in plasma”.

With `CC[C@H](C)[C@@H]([C@@H](CC(=O)N1CCC[C@H]1[C@H](OC)[C@@H](C)C(=O)N[C@H](C)[C@@H](O)c1ccccc1)OC)N(C)C(=O)[C@@H](NC(=O)[C@@H](NC)C(C)C)C(C)C` [MMAE, Monomethyl auristatin E] (H-[NMeV]V[Dil][Dolaproine]-X4) the “binding affinity (Kd) on MDA-MB-468 cell line (in words)” value [7] was “almost no detectable binding affinity” and the “retention on the cells (in words)” value ([7]; MDA-MB-468 cells, detection by fluorescent antibody to MMAE) was “minimal retention”.
